# Experimental data reported in paper PMC9410543.
# Target: GLuc1-ALIX (UniProt Q8WUM4)
# Assay: protein-fragment complementation assay (split Gaussia luciferase, GLuc2 bait / GLuc1 prey)
# Conditions: parent: est. 7.4; read off a plot
# GLuc1-ALIX, sequence (Q8WUM4 whole entry, the tested form may be a part): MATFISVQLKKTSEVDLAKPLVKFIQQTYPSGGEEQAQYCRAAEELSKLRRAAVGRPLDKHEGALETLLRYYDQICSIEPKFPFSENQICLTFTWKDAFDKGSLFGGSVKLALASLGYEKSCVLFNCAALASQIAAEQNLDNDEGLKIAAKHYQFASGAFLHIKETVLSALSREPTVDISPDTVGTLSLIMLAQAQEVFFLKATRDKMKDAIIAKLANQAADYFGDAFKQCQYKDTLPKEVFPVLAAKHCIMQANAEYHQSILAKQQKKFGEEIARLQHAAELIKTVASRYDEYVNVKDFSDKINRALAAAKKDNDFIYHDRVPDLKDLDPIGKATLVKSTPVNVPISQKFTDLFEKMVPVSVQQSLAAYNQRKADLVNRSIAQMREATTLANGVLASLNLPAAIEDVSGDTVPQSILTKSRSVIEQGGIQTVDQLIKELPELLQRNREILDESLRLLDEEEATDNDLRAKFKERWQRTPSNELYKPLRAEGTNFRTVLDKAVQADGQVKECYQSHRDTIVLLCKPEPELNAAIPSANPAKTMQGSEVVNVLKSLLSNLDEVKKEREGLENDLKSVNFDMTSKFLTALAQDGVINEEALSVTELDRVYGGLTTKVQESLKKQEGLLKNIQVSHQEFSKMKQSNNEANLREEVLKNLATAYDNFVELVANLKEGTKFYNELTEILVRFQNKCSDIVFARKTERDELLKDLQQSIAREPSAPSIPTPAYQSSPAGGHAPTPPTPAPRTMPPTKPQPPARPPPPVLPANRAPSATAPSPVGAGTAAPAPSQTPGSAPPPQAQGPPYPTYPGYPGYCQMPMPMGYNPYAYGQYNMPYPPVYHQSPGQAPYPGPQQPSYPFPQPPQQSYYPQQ
substance,measurement,value
GLuc2-pX Y800A; K801A; E802A; L803A,response (Log2 normalized LU),1.5
